{"source": "patent US9297028B2", "about": "“Fermentive production of four carbon alcohols” (Butamax Advanced Biofuels LLC, priority 2005, dated 2016)", "molecules": {"B1": {"name": "ERG10: product of the Saccharomyces cerevisiae ERG10 gene, a functional ortholog of the thlA gene (protein, UniProt P41338 2-398, looked up)", "Acetyl-CoA acetyltransferase": "SQNVYIVSTARTPIGSFQGSLSSKTAVELGAVALKGALAKVPELDASKDFDEIIFGNVLSANLGQAPARQVALAAGLSNHIVASTVNKVCASAMKAIILGAQSIKCGNADVVVAGGCESMTNAPYYMPAARAGAKFGQTVLVDGVERDGLNDAYDGLAMGVHAEKCARDWDITREQQDNFAIESYQKSQKSQKEGKFDNEIVPVTIKGFRGKPDTQVTKDEEPARLHVEKLRSARTVFQKENGTVTAANASPINDGAAAVILVSEKVLKEKNLKPLAIIKGWGEAAHQPADFTWAPSLAVPKALKHAGIEDINSVDYFEFNEAFSVVGLVNTKILKLDPSKVNVYGGAVALGHPLGCSGARVVVTLLSILQQEGGKIGVAAICNGGGGASSIVIEKI"}, "B2": {"name": "EgTER(opt): butyryl-CoA dehydrogenase (TER) from Euglena gracilis, codon optimized gene lacking the normal mitochondrial presequence (protein, UniProt Q5EU90 69-539, looked up)", "Trans-2-enoyl-CoA reductase": "VPQMAEGFSGEATSAWAAAGPQWAAPLVAAASSALALWWWAARRSVRRPLAALAELPTAVTHLAPPMAMFTTTAKVIQPKIRGFICTTTHPIGCEKRVQEEIAYARAHPPTSPGPKRVLVIGCSTGYGLSTRITAAFGYQAATLGVFLAGPPTKGRPAAAGWYNTVAFEKAALEAGLYARSLNGDAFDSTTKARTVEAIKRDLGTVDLVVYSIAAPKRTDPATGVLHKACLKPIGATYTNRTVNTDKAEVTDVSIEPASPEEIADTVKVMGGEDWELWIQALSEAGVLAEGAKTVAYSYIGPEMTWPVYWSGTIGEAKKDVEKAAKRITQQYGCPAYPVVAKALVTQASSAIPVVPLYICLLYRVMKEKGTHEGCIEQMVRLLTTKLYPENGAPIVDEAGRVRVDDWEMAEDVQQAVKDLWSQVSTANLKDISDFAGYQTEFLRLFGFGIDGVDYDQPVDVEADLPSAAQQ"}, "B3": {"name": "Ter: butyl-CoA dehydrogenase (ter) encoded by the codon optimized tery gene, SEQ ID NO:187 (protein)", "chain": "MLVKAKFVKGFIRDVHPYGCRREVLNQIDYCKKAIGFRGPKKVLIVGASSGFGLATRISVAFGGPEAHTIGVSYETGATDRRIGTAGWYNNIFFKEFAKKKGLVAKNFIEDAFSNETKDKVIKYIKDEFGKIDLFVYSLAAPRRKDYKTGNVYTSRIKTILGDFEGPTIDVERDEITLKKVSSASIEEIEETRKVMGGEDWQEWCEELLYEDCFSDKATTIAYSYIGSPRTYKIYREGTIGIAKKDLEDKAKLINEKLNRVIGGRAFVSVNKALVTKASAYIPTFPLYAAILYKVMKEKNIHENCIMQIERMFSEKIYSNEKIQFDDKGRLRMDDLELRKDVQDEVDRIWSNITPENFKELSDYKGYKKEFMNLNGFDLDGVDYSKDLDIELLRKLEP", "modifications": "Modified Ter protein"}, "B4": {"name": "Ald: butyraldehyde dehydrogenase encoded by ald from C. beijerinckii ATCC 35702, SEQ ID NO:12; in yeast from codon optimized aldy, SEQ ID NO:189 (protein, listed as Clostridium beijerinckii)", "chain": "MNKDTLIPTTKDLKVKTNGENINLKNYKDNSSCFGVFENVENAISSAVHAQKILSLHYTKEQREKIITEIRKAALQNKEVLATMILEETHMGRYEDKILKHELVAKYTPGTEDLTTTAWSGDNGLTVVEMSPYGVIGAITPSTNPTETVICNSIGMIAAGNAVVFNGHPCAKKCVAFAVEMINKAIISCGGPENLVTTIKNPTMESLDAIIKHPSIKLLCGTGGPGMVKTLLNSGKKAIGAGAGNPPVIVDDTADIEKAGRSIIEGCSFDNNLPCIAEKEVFVFENVADDLISNMLKNNAVIINEDQVSKLIDLVLQKNNETQEYFINKKWVGKDAKLFLDEIDVESPSNVKCIICEVNANHPFVMTELMMPILPIVRVKDIDEAIKYAKIAEQNRKHSAYIYSKNIDNLNRFEREIDTTIFVKNAKSFAGVGYEAEGFTTFTIAGSTGEGITSARNFTRQRRCVLAG"}, "B5": {"name": "crotonase: crotonase encoded by crt from C. acetobutylicum ATCC 824, SEQ ID NO:8 (protein, listed as Clostridium acetobutylicum)", "chain": "MELNNVILEKEGKVAVVTINRPKALNALNSDTLKEMDYVIGEIENDSEVLAVILTGAGEKSFVAGADISEMKEMNTIEGRKFGILGNKVFRRLELLEKPVIAAVNGFALGGGCEIAMSCDIRIASSNARFGQPEVGLGITPGFGGTQRLSRLVGMGMAKQLIFTAQNIKADEALRIGLVNKVVEPSELMNTAKEIANKIVSNAPVAVKLSKQAINRGMQCDIDTALAFESEAFGECFSTEDQKDAMTAFIEKRKIEGFKNR"}}, "type_in_all_cases": "biochemical", "key": {"[1]": {"assay": "Acetoacetyl-CoA thiolase activity in cell free extracts (decrease in absorbance at 303 nm)", "conditions": "yeast strain BY4741 (pNY6), ERG10 gene, in words", "procedure": "Acetoacetyl-CoA thiolase activity in the cell free extracts was measured as degradation of a Mg^2+-acetoacetyl-CoA complex by monitoring the decrease in absorbance at 303 nm. Standard assay conditions were 100 mM Tris-HCl pH 8.0, 1 mM DTT (dithiothreitol) and 10 mM MgCl2. The cocktail was equilibrated for 5 min at 37° C.; then the cell-free extract was added. The reaction was initiated with the addition of 0.05 mM acetoacetyl-CoA plus 0.2 mM CoA. Protein concentration was measured by either the Bradford method or by the Bicinchoninic Kit (Sigma, catalog no. BCA-1). Bovine serum albumin (Bio-Rad, Hercules, Calif.) was used as the standard in both cases. In one typical assay, the specific activity of the ThlA protein in the induced culture was determined to be 16.0 μmol mg^−1 min^−1 compared to 0.27 μmol mg^−1 min^−1 in the uninduced culture.\nFor enzyme activity analysis, a single colony of each strain was streaked onto a fresh plate containing SD minimal drop out medium and incubated at 30° C. for 2 days. […] The optical density (OD600) of the overnight culture was measured, and the culture was diluted to an OD600=0.1 in 250 mL of the same medium in a 1.0 L shake flask, and grown at 30° C. with shaking at 250 rpm to an OD600 of between 0.8 to 1.0. […]"}, "[2]": {"assay": "Trans-2-enoyl-CoA reductase (butyryl-CoA dehydrogenase) activity assayed as described by Hoffmeister et al.", "procedure": "Trans-2-enoyl-CoA reductase activity was assayed as described by Hoffmeister et al. (J. Biol. Chem. 280, 4329-4338 (2005)). In one typical assay, the specific activity of the TER CAC0462 protein in the induced culture was determined to be 0.694 μmol mg^−1 min^−1 compared to 0.0128 μmol mg^−1 min^−1 in the uninduced culture.\nTrans-2-enoyl-CoA reductase activity was assayed as described by Hoffmeister et al., J. Biol. Chem. 280:4329 (2005). In a typical assay, the specific activity of the EgTER(opt) protein in the induced BL21 (DE3)/pET23+::EgTER(opt) culture was determined to be 1.9 μmol mg^−1 min^−1 compared to 0.547 μmol mg^−1 min^−1 in the uninduced culture.\n(§1) For enzyme activity analysis, a single colony of each strain was streaked onto a fresh plate containing SD minimal drop out medium and incubated at 30° C. for 2 days. The cells on this plate were used to inoculate 20 mL of SD drop out medium and in a 125 mL shake flask and grown overnight at 30° C., with shaking at 250 rpm. The optical density (OD600) of the overnight culture was measured, and the culture was diluted to an OD600=0.1 in 250 mL of the same medium in a 1.0 L shake flask, and grown at 30° C. with shaking at 250 rpm to an OD600 of between 0.8 to 1.0. The cells were then harvested by centrifugation at 2000×g for 10 min, and resuspended in 20 mL of 50 mM Tris-HCl buffer, pH 8.5. Enzyme assays were performed as described above."}, "[3]": {"assay": "Acylating aldehyde dehydrogenase activity (formation of NADH, absorbance at 340 nm)", "conditions": "yeast BY4741 transformants containing pNY8", "procedure": "Acylating aldehyde dehydrogenase activity was determined by monitoring the formation of NADH, as measured by the increase in absorbance at 340 nm, as described by Husemann et al. (Appl. Microbiol. Biotechnol. 31:435-444 (1989)). In one typical assay, the specific activity of the Aid protein in the induced culture was determined to be 0.106 μmol mg^−1 min^−1 compared to 0.01 μmol mg^−1 min^−1 in the uninduced culture\nas §1"}, "[4]": {"assay": "Crotonase activity assayed as described by Stern", "procedure": "Crotonase activity was assayed as described by Stern (Methods Enzymol. 1, 559-566, (1954)). In one typical assay, the specific activity of the crotonase protein in the induced culture was determined to be 444 μmol mg^−1 min^−1 compared to 47 μmol mg^−1 min^−1 in the uninduced culture.\nas §1"}}, "data": [{"molecule": "B1", "values": [{"measurement": "thiolase activity", "setting": "[1]", "value": "no thiolase activity"}]}, {"molecule": "B2", "values": [{"measurement": "specific activity (trans-2-enoyl-CoA reductase)", "setting": "[2]; induced BL21 (DE3)/pET23+::EgTER(opt) culture", "value": 1.9, "unit": "µmol/mg/min"}, {"measurement": "butyryl-CoA dehydrogenase activity", "setting": "[2]; pTrc99a-EgTER(opt) compared with CaTER constructs, in words", "value": "Higher"}]}, {"molecule": "B3", "values": [{"measurement": "Ter activity", "setting": "[2]; yeast BY4741 transformant of pNY9", "value": 0.26, "unit": "U/mg"}, {"measurement": "Ter activity", "setting": "[2]; yeast BY4741 transformed with pNY13, SD-His medium", "value": 0.19, "unit": "U/mg"}]}, {"molecule": "B4", "values": [{"measurement": "Ald specific activity towards butyryl-CoA", "setting": "[3]", "value": "approximately 0.07 U/mg"}]}, {"molecule": "B5", "values": [{"measurement": "Crt activity", "setting": "[4]; yeast strain BY4741 (pNY11: pRS426-GPM1-crt-GPM1t)", "value": 85, "unit": "U/mg"}, {"measurement": "Crt enzyme activity", "setting": "[4]; yeast strain DPD5200 (BY4743/pNY103), standard conditions", "value": 23.0, "unit": "U/mg"}]}]}
